The values below come from publication PMC4132270, “Compartmentalized self-replication under fast PCR cycling conditions yields Taq DNA polymerase mutants with increased DNA-binding affinity and blood resistance”.

One data set concerns the target Taq E507K (Thermus aquaticus, UniProt P19821 1-832, E507K). The experiment in a line: EMSA; 95 mM KCl; 0.25 nM hairpin, 0.5-1000 nM enzyme, 1x Taq buffer (50 mM KCl for wild type, 95 mM KCl for mutants; full composition and pH not stated for this assay), 37 C, 30. The settings on record: protein: recombinant, label: 5' 33P, recessed 3' end, 5' overhang.
Data set [1] addresses Taq DNA polymerase (wild type) (Thermus aquaticus, UniProt P19821 1-832). In words: EMSA; 50 mM KCl (enzyme's KCl optimum); 0.25 nM hairpin, 0.5-1000 nM enzyme, 1x Taq buffer (50 mM KCl for wild type, 95 mM KCl for mutants; full composition and pH not stated for this assay), 37 C, 30. The settings on record: protein: recombinant, tags: none (His tag removed, pET11), label: 5' 33P, recessed 3' end, 5' overhang. In general terms: Mobility shift assays separate free from complexed probe on a gel.

For another data set, the target named is Taq G59W (Thermus aquaticus, UniProt P19821 1-832, G59W). The experiment in a line: EMSA; 95 mM KCl (Methods: all assays with Taq mutants); text gives 91 nM; 0.25 nM hairpin, 0.5-1000 nM enzyme, 1x Taq buffer (50 mM KCl for wild type, 95 mM KCl for mutants; full composition and pH not stated for this assay), 37 C, 30. To be noted: protein: recombinant, label: 5' 33P, recessed 3' end, 5' overhang.

B1: hairpin primer-template (structured_DNA)
DNA: CTCCAGACACGACGCAGTTGCCCGATGGTCGACGTTCGCGAAAGCGAACGTCGACCATCGGGCAACT
modifications: 3' end blocked with dideoxy TMP (3' ddT; unclear whether the printed 3' T is the ddT or it is added)
On to B1, for which the dissociation constant Kd in the data set with Taq E507K worked out at 1.1 nM; in data set [1], 102 nM; with Taq G59W, 91.6 nM.

The term Kd denotes a measure of binding affinity in units of concentration.
